Measurements from patent US8287851B2, “Use of interleukin 17E for the treatment of cancer” (Lorus Therapeutics Inc., priority 2005, dated 2012).

T1: IL17BR interaction with protein tyrosine kinase Lyn (Mus musculus, UniProt Q9JIP3)
T1 construct: using the B cell lymphoma cell line WEHI-231; endogenous in cells; host or cells: WEHI-231 B cell lymphoma cells
T1 sequence (Q9JIP3 18-499): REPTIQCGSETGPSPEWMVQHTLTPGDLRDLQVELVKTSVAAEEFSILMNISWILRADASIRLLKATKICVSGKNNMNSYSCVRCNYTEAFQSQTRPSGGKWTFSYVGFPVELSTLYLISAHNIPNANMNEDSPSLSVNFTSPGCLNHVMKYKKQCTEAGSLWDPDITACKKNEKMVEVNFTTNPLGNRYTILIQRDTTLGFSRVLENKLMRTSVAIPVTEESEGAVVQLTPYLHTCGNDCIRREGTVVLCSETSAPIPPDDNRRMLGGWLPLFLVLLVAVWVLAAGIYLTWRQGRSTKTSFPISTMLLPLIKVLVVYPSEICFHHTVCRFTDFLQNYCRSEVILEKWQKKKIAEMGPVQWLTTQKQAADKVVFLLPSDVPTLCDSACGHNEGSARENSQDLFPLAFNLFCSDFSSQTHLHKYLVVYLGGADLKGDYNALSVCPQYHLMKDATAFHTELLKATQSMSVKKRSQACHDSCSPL

B1: human IL-17E: Recombinant human IL-17E from PeproTech; two 145 amino acid chains, predominant form starting at Tyr 33 of GenBank AAG40848 (protein, listed as Homo sapiens)
chain: YSHWPSCCPSKGQDTSEELLRWSTVPVPPLEPARPNRHPESCRASEDGPLNSRAISPWRYELDRDLNRLPQDLYHARCLCPHCVSLQTGSHMDPRGNSELLYHNQTVFYRRPCHGEKGTHKGYCLERRLYRVSLACVCVRPRVMG
B2: murine IL-17E: Murine IL-17E from R&D Systems; predominant form starting at Val 17 of GenBank NP 542767 (protein)
chain: VSLRIQEGCSHLPSCCPSKEQEPPEEWLKWSSASVSPPEPLSHTHHAESCRASKDGPLNSRAISPWSYELDRDLNRVPQDLYHARCLCPHCVSLQTGSHMDPLGNSVPLYHNQTVFYRRPCHGEEGTHRRYCLERRLYRVSLACVCVRPRVMA

What was measured:
[1] = molecular target: T1, IL17BR interaction with protein tyrosine kinase Lyn; test: Coimmunoprecipitation of Lyn and IL17BR in WEHI-231 cells; type: cell-based; details: 0.1 μg per 5×10^6 WEHI-231 cells, 5 minutes at 37° C.
Procedure: The effect of interleukin 17E on the induction of interaction of its receptor IL17BR with the protein tyrosine kinase Lyn was examined using the B cell lymphoma cell line WEHI-231.
A total of 5×10^6 cells per sample were incubated with 0.1 μg of human IL17E (hIL-17E) for 5 minutes at 37° C. Cells were lysed in lysis buffer for 30 minutes on ice, followed by centrifugation for 10 minutes. The tyrosine kinase Lyn was immunoprecipitated from 350 μg of protein lysate using rabbit anti-Lyn antibodies coupled to Protein A Sepharose beads. Immunoprecipitated samples containing approximately 25 μg of protein were separated by SDS-PAGE, followed by transfer to membranes for Western blotting.
For detection of phosphorylated Lyn, blots were incubated with anti-phosphotyrosine antibodies, followed by horseradish peroxidase (HRP)-conjugated anti-mouse antibodies.
For detection of IL17BR, blots were incubated with biotin-conjugated-rat anti-IL17BR antibodies, followed by HRP-conjugated streptavidin.
To assess equivalent loading of Lyn, blots were incubated with rabbit anti-Lyn antibodies, followed by HRP-conjugated-anti-rabbit antibodies.
All blots were exposed to autoradiography film and developed to detect chemiluminescence.

[2] = system: human pancreatic cancer MiaPaCa-2 xenograft; test: Antitumour efficacy in human pancreatic cancer MiaPaCa-2 xenograft model; type: in vivo, CD-1 athymic nude mice; details: 0.04 mg/kg murine IL-17E i.p. every third day
Procedure: The ability of murine interleukin 17E to inhibit human pancreatic cancer growth was examined as follows. Human pancreatic cancer MiaPaCa-2 cells (10^6 cells in 100 μl PBS) were subcutaneously implanted into the right flank of CD-1 athymic nude mice. Murine IL-17E was obtained from R&D Systems, Inc., and is present in the preparation as a disulphide linked homodimer. The predominant form of IL-17E in this preparation is the form starting at Val 17 of the murine sequence provided as GenBank Accession No. NP 542767. When tumours reached a volume of 50-100 mm^3, mice were randomly separated into two groups of 8 animals and treated as follows:
Group I: […] of PBS intraperitoneally (i.p.) per mouse every day until the endpoint of the experiment; and
Group II: 0.04 mg/kg of murine IL-17E intraperitoneally (i.p.) every third day until the endpoint of the experiment.
The size of the tumours was measured by caliper measurements throughout the experiment. Tumour weight was determined from tumour tissue surgically excised from the animal on the last day of the experiment. […]
25 μg of murine or human IL-17E were reconstituted with 200 μl PBS. […] Samples were separated by electrophoresis on SDS-PAGE gels and analyzed by either Western blotting or silver staining to show a reduction in IL-17E levels in immunodepleted samples. […]

| Molecule | coimmunoprecipitation of Lyn and IL17BR [1] | tumour growth (tumour volume and weight) as compared to PBS [2] |
| --- | --- | --- |
| B1 | coimmunoprecipitated |  |
| B2 |  | significantly inhibit tumour growth |
